Test [1] deals with T1, human MSLN-R3-his protein (human, UniProt Q13421 487-598).
T1 construct: also called hMSLN-R3-his; not shown: His tag
The test can be described thus: ELISA; antibody 0.01 nM. Background: ELISA stands for enzyme-linked immunosorbent assay.

Test [2] addresses T2, human MSLN-FL-his protein (human, UniProt Q13421 296-580).
T2 construct: made in HEK293E cells, purified on nickel column; also called hMSLN-FL-his; human MSLN full-length protein; not shown: His tag
The test can be described thus: competitive ELISA; row F2.13.3.
T2 sequence (Q13421 other isoform, or with tags, fused parts or gaps): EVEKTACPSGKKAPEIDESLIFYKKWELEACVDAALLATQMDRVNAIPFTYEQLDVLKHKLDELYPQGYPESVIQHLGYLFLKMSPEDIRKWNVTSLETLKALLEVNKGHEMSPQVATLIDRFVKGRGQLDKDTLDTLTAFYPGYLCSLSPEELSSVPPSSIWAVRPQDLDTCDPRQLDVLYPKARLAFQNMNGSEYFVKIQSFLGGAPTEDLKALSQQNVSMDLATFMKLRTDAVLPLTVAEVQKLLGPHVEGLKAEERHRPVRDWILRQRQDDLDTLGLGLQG

Test [3] has as its target T1, human MSLN-R3-his protein. The test can be described thus: ELISA; antibody 100 nM.
Test [4] concerns the target T3, human MSLN-R2-his protein (human, UniProt Q13421 391-486).
T3 construct: also called hMSLN-R2-his; not shown: His tag
The test can be described thus: ELISA; antibody 0.01 nM.

For test [5], the target named is T2, human MSLN-FL-his protein. The test can be described thus: competitive ELISA; row F2.16.10.
Procedure: (§1) In order to identify antigen-binding sites of antibodies, MSLN chimeric antibodies were grouped using competitive ELISA.
(§2) The chimeric antibodies were diluted to 2 μg/mL with PBS and allowed to coat 96-well high-adsorption ELISA plates at 50 μL/well. After the plates were coated at 4° C. overnight, 250 μL of a blocking buffer (PBS containing 2% (w/w) BSA) was added for two hours of blocking at room temperature. 40 μg/mL of the antibodies to be tested were added, and then the human MSLN-FL-His protein with an EC₈₀ concentration corresponding to each of the antibodies to be tested was added for incubation for 2 h. The plates were washed 5 times with PBS, an HRP-labeled anti-His secondary antibody (purchased from Genescript, Cat. No. A00612) was then added for incubation for 1 h, and the plates were washed 5 times again. A TMB substrate was added at 50 μL/well, and after 10 minutes of incubation at room temperature, a stop solution (1.0 M HCl) was added at 50 μL/well. OD₄₅₀ nm values were read using an ELISA plate reader (Insight, purchased from PerkinElmer), and the competition rate between the antibodies was calculated according to the OD₄₅₀ nm values using a formula.
In test [6] the target is T3, human MSLN-R2-his protein. The test can be described thus: ELISA; antibody 10 nM.
Test [7] addresses T4, human MSLN-FL-his protein (human, UniProt Q13421 296-580).
T4 construct: also called hMSLN-FL-his; human MSLN full-length protein; not shown: His tag
The test can be described thus: ELISA; antibody 1 nM.

The target of test [8] is T1, human MSLN-R3-his protein. The test can be described thus: ELISA; antibody 0 nM (blank).
The target of test [9] is T3, human MSLN-R2-his protein. The test can be described thus: ELISA; antibody 0.0001 nM.
The target of test [10] is T2, human MSLN-FL-his protein. The test can be described thus: competitive ELISA; row Tab107 (conformation).
Procedure: as §1, §2

T1 sequence (Q13421 495-606): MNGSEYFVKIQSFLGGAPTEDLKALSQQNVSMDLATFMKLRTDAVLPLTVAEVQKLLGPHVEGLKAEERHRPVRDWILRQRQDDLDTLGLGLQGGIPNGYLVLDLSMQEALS
T3 sequence (Q13421 other isoform, or with tags, fused parts or gaps): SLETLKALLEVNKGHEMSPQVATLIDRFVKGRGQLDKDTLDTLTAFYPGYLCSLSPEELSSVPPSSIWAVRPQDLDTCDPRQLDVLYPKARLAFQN

B1: Tab107 (YP3, hIgG1) (antibody, V domains shown)
VH: QEQLVESGGGLVQPGASLTLTCTASGIDFSRYYMCWVRQAPGKGLEGIACIYIGGSGSTYYASWAKGRFTISKASSTTVTLQMTSLTAADTATYFCARGTNLNYIFRLWGPGTLVTVSS
VL: DVVMTQTPSPVSAAVGGTVTIKCQASQSINNGLAWYQQKPGQPPRLLIYSASNLESGVPSRFKGSGSGTEFTLTISDLECDDAATYYCQCIWDGNSYVNAFGGGTEVVVRT
notes: Control antibody; VH and VL recombined into human IgG1 CH and CL expression vectors; also called YP3 human IgG1 antibody
On to B1, for which the OD450 nm turned out to be 0.04 in test [1]; 0.09 in test [3]; 0.04 in test [4]; 0.05 in test [6]; 1.74 in test [7]; 0.05 in [8]. In [9], this molecule came in with an OD450 nm of 0.04. Besides, the competition rate in test [2] is -203%; in test [5], -104%; in test [10], 94%.

The values are drawn from US20250250357A1 (NANJING ZAIMING PHARMACEUTICAL, published 2025).
